{"source": "patent US20230227514A1", "about": "“BETA-ARRESTIN COMPOSITIONS AND ASSOCIATED METHODS” (Duke University, priority 2020, published 2023)", "key": {"[1]": {"biological_target": "T1, D2 dopamine receptor (D2R) (Homo sapiens, UniProt P14416)", "T1 construct": "expressed in transfected cells", "T1 sequence (P14416 whole entry)": "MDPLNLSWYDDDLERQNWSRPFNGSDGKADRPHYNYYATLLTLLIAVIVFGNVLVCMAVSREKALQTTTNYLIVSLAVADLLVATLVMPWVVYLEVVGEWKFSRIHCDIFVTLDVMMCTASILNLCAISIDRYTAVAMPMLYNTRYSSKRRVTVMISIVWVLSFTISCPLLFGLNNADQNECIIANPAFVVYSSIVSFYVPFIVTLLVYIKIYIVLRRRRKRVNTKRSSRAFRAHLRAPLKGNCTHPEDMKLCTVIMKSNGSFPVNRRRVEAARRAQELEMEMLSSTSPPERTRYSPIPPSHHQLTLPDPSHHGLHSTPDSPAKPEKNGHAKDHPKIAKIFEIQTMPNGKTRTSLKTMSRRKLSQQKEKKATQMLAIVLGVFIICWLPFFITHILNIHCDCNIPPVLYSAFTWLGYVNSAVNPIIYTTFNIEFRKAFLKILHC", "assay": "Co-immunoprecipitation of βarrestin2 constructs with HA-D2R", "format": "binding", "conditions": "HEK-293 cells stably expressing HA-D2R, co-IP", "method": "Cross-linking, Immunoprecipitation and Immunoblotting. […] Twenty-four hours post-transfection, cells were starved in PBS containing 10 mM HEPES (pH 7.4) for 1 h and stimulated with vehicle or agonist (isoproterenol, 1 μM; or AVP 1 μM, or Dopamine 1 μM) at 37° C. for desired times. After stimulations, β2AR stable cells were treated with the crosslinker DSP to a final concentration of […], and plates were rocked for 20 min at room temperature. Reaction was quenched by adding 25 μl of 1M Tris-Cl pH 8.5 per 1 mL volume of buffer in the dish and rocked for additional 5 min at room temperature.\nHarvested cells were washed with ice-cold PBS (pH 7.4) and solubilized in an ice-cold lysis buffer (50 mM HEPES (pH 7.5), 2 mM EDTA, 250 mM NaCl, 10% (v/v) glycerol, and 0.5% (v/v) IGEPAL CA-630) that was supplemented with phosphatase and protease inhibitors (1 mM sodium orthovanadate, 1 mM sodium fluoride, 1 mM phenylmethylsulfonyl fluoride, 5 μg/ml leupeptin, 5 μg/ml aprotinin, 1 μg/ml pepstatin A, and 100 μM benzamidine). […] Cell lysate protein concentrations were determined by Bradford protein assay and equivalent μg of proteins were immunoprecipitated using anti-FLAG M2 antibody resin (for FIG. 2) or Anti-HA magnetic beads from Thermo Pierce (for FIG. 5, FIG. 7, and FIG. 8). […] HA-D2R or HA-V2R were detected using an anti-HA IgG (Cell Signaling Technologies). […]"}, "[2]": {"biological_target": "T2, β1 adrenergic receptor (β1AR) (Homo sapiens, UniProt P08588)", "T2 construct": "expressed in transfected cells", "T2 sequence (P08588 whole entry, species assumed)": "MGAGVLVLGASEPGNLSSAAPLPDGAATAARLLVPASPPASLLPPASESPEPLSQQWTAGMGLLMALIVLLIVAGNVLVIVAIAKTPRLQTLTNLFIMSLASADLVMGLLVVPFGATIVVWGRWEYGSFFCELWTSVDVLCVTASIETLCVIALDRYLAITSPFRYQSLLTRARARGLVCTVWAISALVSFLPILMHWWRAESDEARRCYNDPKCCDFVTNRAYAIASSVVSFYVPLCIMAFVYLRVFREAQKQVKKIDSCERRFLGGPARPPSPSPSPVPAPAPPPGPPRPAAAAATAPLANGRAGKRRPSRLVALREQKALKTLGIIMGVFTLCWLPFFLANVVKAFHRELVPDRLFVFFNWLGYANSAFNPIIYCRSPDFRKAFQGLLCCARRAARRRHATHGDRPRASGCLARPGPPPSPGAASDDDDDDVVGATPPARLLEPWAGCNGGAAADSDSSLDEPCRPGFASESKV", "assay": "Confocal trafficking and colocalization with β1AR", "format": "cell-based", "conditions": "HEK-293 cells with stable β1AR expression", "method": "Immunostaining and confocal microscopy. […] Twenty-four hours post-transfection, cells were serum-starved for 4 h, and either left untreated or treated with respective agonists for the indicated times in the Figure descriptions. After stimulation, cells were fixed with 5% formaldehyde diluted in phosphate-buffered saline (PBS), permeabilized with 0.1% Triton in PBS containing 2% bovine serum albumin for 20 min and incubated at room temperature with appropriate primary antibody. The next day, cells were washed three times with PBS and incubated with Alexa594 conjugated secondary antibody for 1 h, followed by repeated washes using PBS. Confocal images were acquired using Zeiss LSM510 laser-scanning microscope using multitrack sequential with excitation (488 and 568 nm) and emission (BP 505-550 nm and LP 585 nm) filter sets. Images (1024×1024 pixels) were collected using either a 63× or 100× oil immersion lens. Images were processed for Figure presentation using Adobe Photoshop software, and any increase or decrease of brightness/contrast was applied to the entire image. The nuclear rim localization of YFP-βarrestin2-SUMO1 is readily visualized in cells with low to moderate expression of YFP-protein. In cells with high expression, this localization is present, and can be discerned by enlarging sections of the nuclear rim."}, "[3]": {"biological_target": "T1, D2 dopamine receptor (D2R)", "assay": "BRET dose-response assay of βarrestin2 construct recruitment to D2R-RlucII", "format": "cell-based", "conditions": "D2R-RlucII with YFP constructs; dopamine 15 min; compared with YFP-βarrestin2", "method": "HEK-293 cells were transiently transfected with D2R-RlucII along with YFP-βarr2-WT, YFP-βarr2-SUMO1 or YFP-βarr2-Ub and incubated with the indicated concentrations of dopamine for 15 min. BRET signals were measured as described in Example 1 herein, and changes following agonist treatment are expressed as a percentage of the BRET signal observed in unstimulated cells (top panel). […] The histogram (bottom panel) represents Bmax values of agonist induced BRET as means±SEM of 4 independent experiments performed in duplicates. Significance of changes in energy transfer was established by one-way ANOVA comparing signals measured for the recruitment of βarr2 fusion proteins to D2R-RlucII *p<0.01; **p<0.001.\nBRET assays. […] BRET readings were acquired using Synergy Neo2 plate reader and obtained 5 min after manual addition of Rluc substrate, coelenterazine h (Promega) to a final concentration of 5 μM.\nThe BRET signal generated was determined by calculating the ratio of light emitted by YFP (520-550 nm) over the light emitted by Rluc (440-480 nm). These values were then corrected by subtracting the background signal (detected when the Rluc-tagged construct was expressed without acceptor) from the BRET signal detected in cells co-expressing both donor and acceptor constructs. […]"}}}
{"substance": "βarrestin2-SUMO1: rat βarrestin2 polypeptide fused to human SUMO1 (SEQ ID NO:1); used YFP- or Flag-tagged", "values": [{"measurement": "binding to activated D2R relative to wild-type βarrestin2", "setting": "[1]; 20 minutes of 1 μM dopamine, Western blot", "value": "3-4 fold"}, {"measurement": "D2R-binding affinity versus βarrestin2", "setting": "[1]; five minutes of 1 μM dopamine", "value": "no significant difference"}, {"measurement": "association with β1AR after isoproterenol activation (confocal)", "setting": "[2]", "value": "strongly and stably"}, {"measurement": "agonist-mediated increase in energy transfer (net BRET) with D2R", "setting": "[3]", "value": "greater"}]}
